Here are results for 10 molecules from PMC8298264, “Function of cofactor Akirin2 in the regulation of gene expression in model human neutrophil-like HL60 cells” (Bioscience Reports, 2021).

B1: sp¦O60925¦PFD1_HUMAN (protein, UniProt O60925 2-122, looked up)
Prefoldin subunit 1: AAPVDLELKKAFTELQAKVIDTQQKVKLADIQIEQLNRTKKHAHLTDTEIMTLVDETNMYEGVGRMFILQSKEAIHSQLLEKQKIAEEKIKELEQKKSYLERSVKEAEDNIREMLMARRAQ
B2: sp¦P25788¦PSA3_HUMAN (protein, UniProt P25788 2-255, looked up)
Proteasome subunit alpha …: SSIGTGYDLSASTFSPDGRVFQVEYAMKAVENSSTAIGIRCKDGVVFGVEKLVLSKLYEEGSNKRLFNVDRHVGMAVAGLLADARSLADIAREEASNFRSNFGYNIPLKHLADRVAMYVHAYTLYSAVRPFGCSFMLGSYSVNDGAQLYMIDPSGVSYGYWGCAIGKARQAAKTEIEKLQMKEMTCRDIVKEVAKIIYIVHDEVKDKAFELELSWVGELTNGRHEIVPKDIREEAEKYAKESLKEEDESDDDNM
B3: sp¦P55145¦MANF_HUMAN (protein, UniProt P55145 25-182, looked up)
Mesencephalic …: LRPGDCEVCISYLGRFYQDLKDRDVTFSPATIENELIKFCREARGKENRLCYYIGATDDAATKIINEVSKPLAHHIPVEKICEKLKKKDSQICELKYDKQIDLSTVDLKKLRVKELKKILDDWGETCKGCAEKSDYIRKINELMPKYAPKAASARTDL
B4: sp¦P20618¦PSB1_HUMAN (protein, UniProt P20618 29-241, looked up)
Proteasome subunit beta type-1: RFSPYVFNGGTILAIAGEDFAIVASDTRLSEGFSIHTRDSPKCYKLTDKTVIGCSGFHGDCLTLTKIIEARLKMYKHSNNKAMTTGAIAAMLSTILYSRRFFPYYVYNIIGGLDEEGKGAVYSFDPVGSYQRDSFKAGGSASAMLQPLLDNQVGFKNMQNVEHVPLSLDRAMRLVKDVFISAAERDVYTGDALRICIVTKEGIREETVSLRKD
B5: sp¦Q9UKX7¦NUP50_HUMAN (protein, UniProt Q9UKX7 1-468, looked up)
Nuclear pore complex protein …: MAKRNAEKELTDRNWDQEDEAEEVGTFSMASEEVLKNRAIKKAKRRNVGFESDTGGAFKGFKGLVVPSGGGRFSGFGSGAGGKPLEGLSNGNNITSAPPFASAKAAADPKVAFGSLAANGPTTLVDKVSNPKTNGDSQQPSSSGLASSKACVGNAYHKQLAALNCSVRDWIVKHVNTNPLCDLTPIFKDYEKYLANIEQQHGNSGRNSESESNKVAAETQSPSLFGSTKLQQESTFLFHGNKTEDTPDKKMEVASEKKTDPSSLGATSASFNFGKKVDSSVLGSLSSVPLTGFSFSPGNSSLFGKDTTQSKPVSSPFPTKPLEGQAEGDSGECKGGDEEENDEPPKVVVTEVKEEDAFYSKKCKLFYKKDNEFKEKGIGTLHLKPTANQKTQLLVRADTNLGNILLNVLIPPNMPCTRTGKNNVLIVCVPNPPIDEKNATMPVTMLIRVKTSEDADELHKILLEKKDA
B6: sp¦P82979¦SARNP_HUMAN (protein, UniProt P82979 2-210, looked up)
SAP domain-containing …: ATETVELHKLKLAELKQECLARGLETKGIKQDLIHRLQAYLEEHAEEEANEEDVLGDETEEEETKPIELPVKEEEPPEKTVDVAAEKKVVKITSEIPQTERMQKRAERFNVPVSLESKKAARAARFGISSVPTKGLSSDNKPMVNLDKLKERAQRFGLNVSSISRKSEDDEKLKKRKERFGIVTSSAGTGTTEDTEAKKRKRAERFGIA
B7: sp¦O75083¦WDR1_HUMAN (protein, UniProt O75083 1-606, looked up)
WD repeat-containing protein 1: MPYEIKKVFASLPQVERGVSKIIGGDPKGNNFLYTNGKCVILRNIDNPALADIYTEHAHQVVVAKYAPSGFYIASGDVSGKLRIWDTTQKEHLLKYEYQPFAGKIKDIAWTEDSKRIAVVGEGREKFGAVFLWDSGSSVGEITGHNKVINSVDIKQSRPYRLATGSDDNCAAFFEGPPFKFKFTIGDHSRFVNCVRFSPDGNRFATASADGQIYIYDGKTGEKVCALGGSKAHDGGIYAISWSPDSTHLLSASGDKTSKIWDVSVNSVVSTFPMGSTVLDQQLGCLWQKDHLLSVSLSGYINYLDRNNPSKPLHVIKGHSKSIQCLTVHKNGGKSYIYSGSHDGHINYWDSETGENDSFAGKGHTNQVSRMTVDESGQLISCSMDDTVRYTSLMLRDYSGQGVVKLDVQPKCVAVGPGGYAVVVCIGQIVLLKDQRKCFSIDNPGYEPEVVAVHPGGDTVAIGGVDGNVRLYSILGTTLKDEGKLLEAKGPVTDVAYSHDGAFLAVCDASKVVTVFSVADGYSENNVFYGHHAKIVCLAWSPDNEHFASGGMDMMVYVWTLSDPETRVKIQDAHRLHHVSSLAWLDEHTLVTTSHDASVKEWTITY
B8: sp¦P28074¦PSB5_HUMAN (protein, UniProt P28074 60-263, looked up)
Proteasome subunit beta type-5: TTTLAFKFRHGVIVAADSRATAGAYIASQTVKKVIEINPYLLGTMAGGAADCSFWERLLARQCRIYELRNKERISVAAASKLLANMVYQYKGMGLSMGTMICGWDKRGPGLYYVDSEGNRISGATFSVGSGSVYAYGVMDRGYSYDLEVEQAYDLARRAIYQATYRDAYSGGAVNLYHVREDGWIRVSSDNVADLHEKYSGSTP
B9: sp¦P10620¦MGST1_HUMAN (protein, UniProt P10620 1-155, looked up)
Microsomal glutathione …: MVDLTQVMDDEVFMAFASYATIILSKMMLMSTATAFYRLTRKVFANPEDCVAFGKGENAKKYLRTDDRVERVRRAHLNDLENIIPFLGIGLLYSLSGPDPSTAILHFRLFVGARIYHTIAYLTPLPQPNRALSFFVGYGVTLSMAYRLLKSKLYL
B10: sp¦Q15424¦SAFB1_HUMAN (protein, UniProt Q15424 2-915, looked up)
Scaffold attachment factor B1: AETLSGLGDSGAAGAAALSSASSETGTRRLSDLRVIDLRAELRKRNVDSSGNKSVLMERLKKAIEDEGGNPDEIEITSEGNKKTSKRSSKGRKPEEEGVEDNGLEENSGDGQEDVETSLENLQDIDIMDISVLDEAEIDNGSVADCVEDDDADNLQESLSDSRELVEGEMKELPEQLQEHAIEDKETINNLDTSSSDFTILQEIEEPSLEPENEKILDILGETCKSEPVKEESSELEQPFAQDTSSVGPDRKLAEEEDLFDSAHPEEGDLDLASESTAHAQSSKADSLLAVVKREPAEQPGDGERTDCEPVGLEPAVEQSSAASELAEASSEELAEAPTEAPSPEARDSKEDGRKFDFDACNEVPPAPKESSTSEGADQKMSSPEDDSDTKRLSKEEKGRSSCGRNFWVSGLSSTTRATDLKNLFSKYGKVVGAKVVTNARSPGARCYGFVTMSTAEEATKCINHLHKTELHGKMISVEKAKNEPVGKKTSDKRDSDGKKEKSSNSDRSTNLKRDDKCDRKDDAKKGDDGSGEKSKDQDDQKPGPSERSRATKSGSRGTERTVVMDKSKGVPVISVKTSGSKERASKSQDRKSASREKRSVVSFDKVKEPRKSRDSESHSRVRERSEREQRMQAQWEREERERLEIARERLAFQRQRLERERMERERLERERMHVEHERRREQERIHREREELRRQQELRYEQERRPAVRRPYDLDRRDDAYWPEAKRAALDERYHSDFNRQDRFHDFDHRDRGRYPDHSVDRREGSRSMMGEREGQHYPERHGGPERHGRDSRDGWGGYGSDKRMSEGRGLPPPPRRDWGDHGRREDDRSWQGTADGGMMDRDHKRWQGGERSMSGHSGPGHMMNRGGMSGRGSFAPGGASRGHPIPHGGMQGGFGGQSRGSRPSDARFTRRY

In the assay the test system is human HL60 cells. As to the kind of experiment: SWATH-MS proteomics, differential protein representation, akirin2 KO vs WT HL60 cells. The following applies: akirin2 KO vs WT HL60 cells; sheet "Over-represented in KO". In kind it is cell-based. The gist of the method: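 Differential representation compares akirin2 KO with WT HL60 across three biological replicates, 5 µg digest each, acquired by data-independent SWATH on a 120-min gradient. Library built from combined IDA runs searched with Paragon; proteins accepted at 1% FDR, with total-area-sum normalization.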
As to B1, the “Fold Change” value is given as 1.213 and the “Log (Fold Change)” value stood at 0.08377.

Turning to B2, the “Fold Change” value came to 1.227 and the “Log (Fold Change)” value is reported as 0.08878.

As to B3, the “Fold Change” value is listed as 1.173 and the “Log (Fold Change)” value worked out at 0.06948.

For B4, the “Fold Change” value worked out at 1.163 and the “Log (Fold Change)” value amounted to 0.06574.

Regarding B5, the “Fold Change” value is listed as 1.164 and the “Log (Fold Change)” value amounted to 0.06601.

Take B6: the “Fold Change” value is 1.173 and the “Log (Fold Change)” value is given as 0.06929.

Take B7: the “Fold Change” value came to 1.216 and the “Log (Fold Change)” value was 0.0848.

As to B8, the “Fold Change” value is given as 1.209 and the “Log (Fold Change)” value came to 0.08243.

B9: the “Fold Change” value came out at 1.217 and the “Log (Fold Change)” value is listed as 0.08527.

In the case of B10, the “Fold Change” value stood at 1.249 and the “Log (Fold Change)” value was 0.09669.
